According to the Immune Epitope Database (IEDB):
pIC50: −log10 of the molar value.

Experiments:
Assay in all cases: IEDB peptide-MHC binding, cellular MHC/competitive/fluorescence; ≥ and ≤ were set here for values at or beyond the usual limits of such assays
[1] = molecular target: HLA-A*02:01
[2] = molecular target: HLA-A*02:02
[3] = molecular target: HLA-A*02:03
[4] = molecular target: HLA-A*02:06
[5] = molecular target: HLA-A*68:02
[6] = source organism: Vaccinia virus WR
[7] = source organism: Mammarenavirus choriomeningitidis
[8] = source organism: Influenza A virus
[9] = source organism: Mammarenavirus brazilense
[10] = source organism: Mammarenavirus machupoense

Sequence	pIC50 [1, 6]	pIC50 [2, 6]	pIC50 [3, 6]	pIC50 [4, 6]	pIC50 [5, 6]	also measured
DVEKRILNT	5.03	5.23	5.17	≤ 4.15	≤ 4.15	
NLCKYLRGHT	4.42	4.40	5.09	≤ 4.15	4.91	
DVNEEYTEAA	4.37	4.33	4.54	4.22	4.80	
DVEKEKFVAT	4.52	4.43	4.26	4.16	≤ 4.15	
GTMPSLTMAC						pIC50 [1, 7]: 4.46; pIC50 [2, 7]: 4.60; pIC50 [3, 7]: 4.79; pIC50 [4, 7]: 4.92; pIC50 [5, 7]: ≤ 4.15
GIDTSNNIA	4.76	4.30	≤ 4.15	4.60	≤ 4.15	
VIVENDNVI	4.59	4.81	4.71	5.14	5.10	
IIRVTTELNI	5.15	5.00	5.06	4.86	4.79	
NVRGSGMRILV						pIC50 [1, 8]: 4.68; pIC50 [2, 8]: ≤ 4.15; pIC50 [3, 8]: 4.34; pIC50 [4, 8]: 4.26; pIC50 [5, 8]: 4.95
TVDVRNIVT	4.98	4.87	4.88	4.27	5.22	
EAKTHFSTT	4.56	4.44	4.60	4.26	4.88	
DISVNASKTI	4.83	4.33	4.93	≤ 4.15	4.84	
QTGINNVQSL	4.32	4.69	4.61	4.27	4.94	
TVDHMAII						pIC50 [1, 8]: ≤ 4.15; pIC50 [2, 8]: ≤ 4.15; pIC50 [3, 8]: 4.88; pIC50 [4, 8]: 4.38; pIC50 [5, 8]: 4.40
EMQLKIDKLT	4.25	5.02	5.17	≤ 4.15	4.37	
GLQSSDDFA						pIC50 [1, 8]: 5.10; pIC50 [2, 8]: 4.94; pIC50 [3, 8]: 4.73; pIC50 [4, 8]: ≤ 4.15; pIC50 [5, 8]: ≤ 4.15
LTGNNTITT	4.95	5.24	5.25	5.06	5.08	
CVRLNNPVIL	4.87	5.07	5.27	4.35	≤ 4.15	
PAHLINKLL	4.95	5.17	5.20	4.37	4.95	
AAFEDLRV						pIC50 [1, 8]: 4.50; pIC50 [2, 8]: 4.54; pIC50 [3, 8]: 5.14; pIC50 [4, 8]: 4.73; pIC50 [5, 8]: ≤ 4.15
NINFNNSSII	4.49	5.18	4.87	4.52	5.16	
AIDRQVSVKL	4.85	5.10	4.88	4.50	4.28	
ITGNKVKTEL	≤ 4.15	≤ 4.15	≤ 4.15	≤ 4.15	≤ 4.15	
NLPFDKTTIMA						pIC50 [1, 8]: 4.60; pIC50 [2, 8]: 5.11; pIC50 [3, 8]: 5.07; pIC50 [4, 8]: ≤ 4.15; pIC50 [5, 8]: 4.96

Sequence	pIC50 [1, 6]	pIC50 [2, 6]	pIC50 [3, 6]	pIC50 [4, 6]	pIC50 [5, 6]	also measured
ATVSADPL						pIC50 [1, 8]: ≤ 4.15; pIC50 [2, 8]: 4.28; pIC50 [3, 8]: ≤ 4.15; pIC50 [4, 8]: 4.67; pIC50 [5, 8]: 4.37
LIISTDQDT	4.52	≤ 4.15	≤ 4.15	≤ 4.15	≤ 4.15	
ELTNKKYRCM	≤ 4.15	≤ 4.15	≤ 4.15	≤ 4.15	4.86	
AIKSNNHLT	4.57	4.30	4.54	≤ 4.15	4.34	
ATKRIRMA						pIC50 [1, 8]: 4.37; pIC50 [2, 8]: 4.23; pIC50 [3, 8]: 4.92; pIC50 [4, 8]: ≤ 4.15; pIC50 [5, 8]: 4.23
AAFEDLRL						pIC50 [1, 8]: ≤ 4.15; pIC50 [2, 8]: 4.76; pIC50 [3, 8]: 4.31; pIC50 [4, 8]: 4.33; pIC50 [5, 8]: 4.22
SVDEEGCGPL	4.49	4.83	4.41	4.90	4.45	
ATAILRKA						pIC50 [1, 8]: 4.28; pIC50 [2, 8]: 4.21; pIC50 [3, 8]: 4.37; pIC50 [4, 8]: ≤ 4.15; pIC50 [5, 8]: ≤ 4.15
VASDVCKKNL	≤ 4.15	4.29	≤ 4.15	≤ 4.15	4.40	
TTELNIVDEI	4.44	4.41	≤ 4.15	4.67	4.97	
ATYQRTRA						pIC50 [1, 8]: ≤ 4.15; pIC50 [2, 8]: ≤ 4.15; pIC50 [3, 8]: ≤ 4.15; pIC50 [4, 8]: ≤ 4.15; pIC50 [5, 8]: ≤ 4.15
PTLFGRGVI	≤ 4.15	4.52	5.17	4.19	≤ 4.15	
HAKYMVTDKT	4.29	5.04	4.46	4.19	≤ 4.15	
YVEHDPRLVA	4.24	4.73	4.79	4.92	4.51	
NVDVGCLLT	4.33	5.01	4.85	4.19	≤ 4.15	
AVPNGTLV						pIC50 [1, 8]: ≤ 4.15; pIC50 [2, 8]: 4.97; pIC50 [3, 8]: ≤ 4.15; pIC50 [4, 8]: 4.97; pIC50 [5, 8]: 4.37
ELVMDKNHAI	≤ 4.15	4.85	≤ 4.15	≤ 4.15	4.71	
LTDVEKRIL	4.57	4.56	4.55	≤ 4.15	≤ 4.15	
PLPSLEYGA	4.83	4.94	4.72	4.37	4.51	
PTEMVDVSMM	4.38	4.94	≤ 4.15	4.92	≤ 4.15	
ICFWSTLFFT						pIC50 [1, 9]: 4.93; pIC50 [2, 9]: 4.48; pIC50 [3, 9]: 4.45; pIC50 [4, 9]: 4.46; pIC50 [5, 9]: 4.32
DLAIKQYGDI	≤ 4.15	4.75	4.48	4.33	5.11	
TATKRIRMA						pIC50 [1, 8]: 4.47; pIC50 [2, 8]: 4.32; pIC50 [3, 8]: 4.62; pIC50 [4, 8]: 4.45; pIC50 [5, 8]: ≤ 4.15
TIEDDKIVTM	4.88	4.77	4.76	4.58	4.41	

Sequence	pIC50 [1, 6]	pIC50 [2, 6]	pIC50 [3, 6]	pIC50 [4, 6]	pIC50 [5, 6]	also measured
YVKNGTKGKL	4.39	5.24	5.14	4.55	4.49	
FASADNHPKM	≤ 4.15	≤ 4.15	4.32	≤ 4.15	≤ 4.15	
LAEYIRHRNT	≤ 4.15	4.44	4.85	≤ 4.15	4.28	
ATALANTI						pIC50 [1, 8]: 4.66; pIC50 [2, 8]: 4.37; pIC50 [3, 8]: 4.65; pIC50 [4, 8]: ≤ 4.15; pIC50 [5, 8]: 4.39
MQLKIDKLT	4.58	5.12	4.22	4.22	≤ 4.15	
RAEIIRMMEGA						pIC50 [1, 8]: ≤ 4.15; pIC50 [2, 8]: 4.93; pIC50 [3, 8]: 5.00; pIC50 [4, 8]: ≤ 4.15; pIC50 [5, 8]: 4.26
DLDKVYEIL	4.53	4.71	4.58	4.27	≤ 4.15	
YNCKCCWFA						pIC50 [1, 10]: 4.37; pIC50 [2, 10]: 4.79; pIC50 [3, 10]: 4.50; pIC50 [4, 10]: ≤ 4.15; pIC50 [5, 10]: 4.28
KTEHCDDFMT	5.12	5.11	4.42	4.94	≤ 4.15	
DVGCLLTDTI	5.17	4.97	4.81	5.00	4.56	
YLEKANKI						pIC50 [1, 8]: 4.91; pIC50 [2, 8]: 5.08; pIC50 [3, 8]: 4.42; pIC50 [4, 8]: ≤ 4.15; pIC50 [5, 8]: ≤ 4.15
CVRNLEELTT	4.34	4.90	4.82	4.37	4.48	
DVGCLLTDT	≤ 4.15	≤ 4.15	4.18	≤ 4.15	≤ 4.15	
PAMSTYSDI	4.79	4.74	4.69	≤ 4.15	4.16	
IASAPQQLCT	4.44	4.27	≤ 4.15	5.08	4.79	
IILFQNNDI	4.87	4.95	4.28	4.92	4.62	
ITDQTVNICI	5.14	≤ 4.15	≤ 4.15	4.98	4.29	
TQLFKYVPSA	≤ 4.15	≤ 4.15	≤ 4.15	≤ 4.15	≤ 4.15	
VATTHSWI						pIC50 [1, 8]: ≤ 4.15; pIC50 [2, 8]: ≤ 4.15; pIC50 [3, 8]: 4.21; pIC50 [4, 8]: ≤ 4.15; pIC50 [5, 8]: 4.25
TTENAAYQVL	5.09	4.53	≤ 4.15	≤ 4.15	4.74	
PTNDIPSLFI	4.74	4.96	4.21	4.83	4.61	
VMDKNHAIFT	5.06	4.73	4.94	≤ 4.15	4.89	
